Test results taken from the supplement of paper PMC10724198.

Legend:
[1] = test system: Saccharomyces cerevisiae; test: protein stability index of tFT-peptide fusion in deletion strain of DOA10 (PSI (0-1 scale)); higher = more stable (slower turnover)
Description: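 MPS profiling in S. cerevisiae of two library types built from selected 12-aa C-degron peptides (IN1, IN2, LN1, LN3, VN2, R1-R5, W1-W3, Atg1 and Rpa12 C-termini): saturation mutagenesis libraries and C-terminal +1 capping libraries (13 aa). Each peptide is fused to the C-terminus of a sfGFP-mCherry timer, after a GGGS linker. Cells are FACS-sorted into 8 mCherry/sfGFP bins and sequenced. PSI runs from 0 (unstable) to 1 (stable), measured once in wild type and in the das1Δ or doa10Δ background.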

[2] = test system: Saccharomyces cerevisiae; test: protein stability index of tFT-peptide fusion in wild type (PSI (0-1 scale)); higher = more stable (slower turnover); conditions: genetic background: wild type
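For protein stability index of tFT-peptide fusion in deletion strain of DOA10 in this document: PSI per variant is the weighted mean of its sequencing read distribution over the sorted stability bins, counting only variants with over 10 reads summed across bins.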
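For protein stability index of tFT-peptide fusion in wild type in this document: PSI derived as read-weighted mean over the 8 sorting bins, only variants exceeding 10 total reads kept, mCherry placed adjacent to the peptide and sfGFP distal.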

Sequence	protein stability index [1]	protein stability index [2]
CLVSLPILLVFR	0.527	0.0722
CLVSLPILPFFR	0.679	0.0842
CLVSLPILVFFR	0.512	0.0876
CLVSLPILWFFR	0.61	0.566
CLVSLPIMLFFR	0.607	0.0325
CLVSLPIPLFFR	0.643	0.0774
CLVSLPIVLFFR	0.581	0.0839
CLVSLPKLLFFR	0.662	0.0835
CLVSLPSLLFFR	0.667	0.0935
CLVSSPILLFFR	0.645	0.272
CPVSLPILLFFR	0.602	0.0943
CSLRVLLPLYFR	0.622	0.0975
DLYMCSVGCWFR	0.697	0.453
ELVSLPILLFFR	0.633	0.0794
FSLRVLLPLYFR	0.608	0.268
GAYMCSVGCWFR	0.686	0.427
GDYMCSVGCWFR	0.692	0.462
GLIMCSVGCWFR	0.39	0.197
GLLMCSVGCWFR	0.409	0.22
GLMMCSVGCWFR	0.506	0.237
GLPMCSVGCWFR	0.699	0.267
GLWMCSVGCWFR	0.54	0.315
GLYMCAVGCWFR	0.54	0.279

Sequence	protein stability index [1]	protein stability index [2]
GLYMCCVGCWFR	0.504	0.303
GLYMCSCGCWFR	0.674	0.46
GLYMCSNGCWFR	0.703	0.397
GLYMCSPGCWFR	0.679	0.246
GLYMCSVGAWFR	0.667	0.451
GLYMCSVGCFFR	0.632	0.408
GLYMCSVGCIFR	0.637	0.587
GLYMCSVGCSFR	0.651	0.621
GLYMCSVGCTFR	0.64	0.609
GLYMCSVGCWDR	0.665	0.627
GLYMCSVGCWFY	0.52	0.398
GLYMCSVICWFR	0.314	0.231
GLYMCSVLCWFR	0.369	0.274
GLYMCSVSCWFR	0.446	0.338
GLYMISVGCWFR	0.341	0.17
GLYQCSVGCWFR	0.676	0.434
GLYSCSVGCWFR	0.676	0.451
GLYYCSVGCWFR	0.605	0.249
GMYMCSVGCWFR	0.713	0.271
GNYMCSVGCWFR	0.699	0.405
MITLPMCPLLLR	0.626	0.302
MSLRVLLPLYFR	0.622	0.314
QLVSLPILLFFR	0.647	0.0846

Sequence	protein stability index [1]	protein stability index [2]
QSLRVLLPLYFR	0.659	0.283
RCTRLDAIYFRI	0.674	0.46
RILRVLLPLYFR	0.654	0.386
RLTRLDAIYFRI	0.663	0.379
RQLRVLLPLYFR	0.665	0.216
RRLRVLLPLYFR	0.668	0.292
RSLAVLLPLYFR	0.68	0.34
RSLRVALPLYFR	0.675	0.189
RSLRVLLHLYFR	0.605	0.254
RSLRVLLLLYFR	0.432	0.217
RSLRVLLPDYFR	0.672	0.64
RSLRVLLPGYFR	0.673	0.624
RSLRVLLPLEFR	0.679	0.601
RSLRVLLPLTFR	0.671	0.379
RSLRVLLPLYFL	0.516	0.319
RSLRVLLPLYFRF	0.584	0.195
RSLRVLLPLYFRH	0.616	0.284
RSLRVLLPLYFRQ	0.606	0.205
RSLRVLLPLYFRV	0.441	0.164
RSLRVLLPLYIR	0.596	0.255
RSLRVLLPLYPR	0.69	0.65
RSLRVLLPLYWR	0.658	0.301
RSLRVLLTLYFR	0.511	0.391

Sequence	protein stability index [1]	protein stability index [2]
RSLRVLNPLYFR	0.684	0.359
RSLRVLWPLYFR	0.676	0.181
RSLRVQLPLYFR	0.685	0.136
RSLRVSLPLYFR	0.687	0.15
RSLRVTLPLYFR	0.676	0.159
RSPRVLLPLYFR	0.681	0.334
RSRRVLLPLYFR	0.702	0.297
RSSRVLLPLYFR	0.699	0.346
RVCRLDAIYFRI	0.638	0.403
RVIRLDAIYFRI	0.653	0.331
RVLRVLLPLYFR	0.634	0.369
RVQRLDAIYFRI	0.666	0.426
RVTQLDAIYFRI	0.685	0.524
RVTRIDAIYFRI	0.693	0.337
RVTRLDAINFRI	0.729	0.683
RVTRLDAIYFCI	0.435	0.378
RVTRLDAIYFPI	0.731	0.703
RVTRLDAIYFRIG	0.408	0.335
RVTRLDAIYFRIP	0.371	0.247
RVTRLDAIYFRIV	0.114	0.0601
